Results published in publication PMC10397247.

Tests used:
4H3057-bA = biological target: T1, 4H3057-bA; assay: two-hybrid library CCNG1;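 further: natural log of median RNA to DNA barcode read ratio; higher means stronger binding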
T1 chain: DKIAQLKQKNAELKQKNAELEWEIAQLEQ

4H319-bA = biological target: T2, 4H319-bA; assay: two-hybrid library CCNG1;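 further: natural log of median RNA to DNA barcode read ratio; higher means stronger binding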
T2 chain: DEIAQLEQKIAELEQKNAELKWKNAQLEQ

4H3855-bN = biological target: T3, 4H3855-bN; assay: two-hybrid library CCNG1;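 further: natural log of median RNA to DNA barcode read ratio; higher means stronger binding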
T3 chain: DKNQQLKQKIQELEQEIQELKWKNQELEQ

4H492-bA = biological target: T4, 4H492-bA; assay: two-hybrid library CCNG1;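 further: natural log of median RNA to DNA barcode read ratio; higher means stronger binding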
T4 chain: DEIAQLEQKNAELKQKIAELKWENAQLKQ

4H741-bA = biological target: T5, 4H741-bA; assay: two-hybrid library CCNG1
T5 chain: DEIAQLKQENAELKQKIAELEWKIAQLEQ

4H477-bA = biological target: T6, 4H477-bA; assay: two-hybrid library CCNG1
T6 chain: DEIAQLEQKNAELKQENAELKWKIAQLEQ

4H3277-bA = biological target: T7, 4H3277-bA; assay: two-hybrid library CCNG1
T7 chain: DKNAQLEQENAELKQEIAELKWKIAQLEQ

4H2915-bA = biological target: T8, 4H2915-bA; assay: two-hybrid library CCNG1
T8 chain: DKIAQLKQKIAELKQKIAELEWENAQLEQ

4H40-bA = biological target: T9, 4H40-bA; assay: two-hybrid library CCNG1
T9 chain: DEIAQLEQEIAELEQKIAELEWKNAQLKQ

O11-bA = biological target: T10, O11-bA; assay: two-hybrid library CCNG1
T10 chain: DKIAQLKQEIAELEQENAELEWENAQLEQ

4H348-bA = biological target: T11, 4H348-bA; assay: two-hybrid library CCNG1
T11 chain: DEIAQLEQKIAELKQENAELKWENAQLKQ

4H48-bN = biological target: T12, 4H48-bN; assay: two-hybrid library CCNG1
T12 chain: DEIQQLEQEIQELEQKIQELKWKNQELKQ

4H491-bN = biological target: T13, 4H491-bN; assay: two-hybrid library CCNG1
T13 chain: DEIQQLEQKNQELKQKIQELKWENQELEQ

4H342-bN = biological target: T14, 4H342-bN; assay: two-hybrid library CCNG1
T14 chain: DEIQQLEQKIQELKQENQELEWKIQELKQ

4H2944-bN = biological target: T15, 4H2944-bN; assay: two-hybrid library CCNG1
T15 chain: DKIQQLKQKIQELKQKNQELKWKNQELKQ

4H968-bA = biological target: T16, 4H968-bA; assay: two-hybrid library CCNG1
T16 chain: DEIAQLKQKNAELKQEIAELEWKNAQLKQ

4H953-bA = biological target: T17, 4H953-bA; assay: two-hybrid library CCNG1
T17 chain: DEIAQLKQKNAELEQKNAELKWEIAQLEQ

4H855-bA = biological target: T18, 4H855-bA; assay: two-hybrid library CCNG1
T18 chain: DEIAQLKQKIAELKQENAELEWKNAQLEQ

4H918-bA = biological target: T19, 4H918-bA; assay: two-hybrid library CCNG1
T19 chain: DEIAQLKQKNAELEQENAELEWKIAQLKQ

4H3601-bH = biological target: T20, 4H3601-bH; assay: two-hybrid library CCNG1
T20 chain: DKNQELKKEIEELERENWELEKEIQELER

4H3592-bH = biological target: T21, 4H3592-bH; assay: two-hybrid library CCNG1
T21 chain: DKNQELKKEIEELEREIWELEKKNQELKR

4H3907-bH = biological target: T22, 4H3907-bH; assay: two-hybrid library CCNG1
T22 chain: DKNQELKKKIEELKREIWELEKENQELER

4H4038-bH = biological target: T23, 4H4038-bH; assay: two-hybrid library CCNG1
T23 chain: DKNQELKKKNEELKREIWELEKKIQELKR

4H1388-AA = biological target: T24, 4H1388-AA; assay: two-hybrid library CCmax; details: mean of both orientations
T24 chain: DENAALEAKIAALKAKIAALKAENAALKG

4H3413-AA = biological target: T25, 4H3413-AA; assay: two-hybrid library CCmax; details: mean of both orientations
T25 chain: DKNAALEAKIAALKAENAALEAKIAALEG

4H3718-AA = biological target: T26, 4H3718-AA; assay: two-hybrid library CCmax; details: mean of both orientations
T26 chain: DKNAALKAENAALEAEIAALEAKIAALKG

4H3056-AA = biological target: T27, 4H3056-AA; assay: two-hybrid library CCmax; details: mean of both orientations
T27 chain: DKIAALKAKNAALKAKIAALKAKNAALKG

4H3865-AA = biological target: T28, 4H3865-AA; assay: two-hybrid library CCmax; details: mean of both orientations
T28 chain: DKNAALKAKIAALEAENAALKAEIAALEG

4H2553-AA = biological target: T29, 4H2553-AA; assay: two-hybrid library CCmax; details: mean of both orientations
T29 chain: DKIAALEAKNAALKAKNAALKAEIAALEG

4H3162-AA = biological target: T30, 4H3162-AA; assay: two-hybrid library CCmax; details: mean of both orientations
T30 chain: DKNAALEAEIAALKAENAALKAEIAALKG

4H2907-AA = biological target: T31, 4H2907-AA; assay: two-hybrid library CCmax; details: mean of both orientations
T31 chain: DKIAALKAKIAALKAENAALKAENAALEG

4H3697-AA = biological target: T32, 4H3697-AA; assay: two-hybrid library CCmax; details: mean of both orientations
T32 chain: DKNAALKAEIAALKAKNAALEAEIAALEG

4H982-AA = biological target: T33, 4H982-AA; assay: two-hybrid library CCmax; details: mean of both orientations
T33 chain: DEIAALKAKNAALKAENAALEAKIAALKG

4H32-AA = biological target: T34, 4H32-AA; assay: two-hybrid library CCmax; details: mean of both orientations
T34 chain: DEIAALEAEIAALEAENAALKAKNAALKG

4H2620-AA = biological target: T35, 4H2620-AA; assay: two-hybrid library CCmax; details: mean of both orientations
T35 chain: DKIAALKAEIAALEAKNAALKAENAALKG

4H697-AA = biological target: T36, 4H697-AA; assay: two-hybrid library CCmax; details: mean of both orientations
T36 chain: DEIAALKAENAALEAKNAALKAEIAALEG

4H3133-AA = biological target: T37, 4H3133-AA; assay: two-hybrid library CCmax; details: mean of both orientations
T37 chain: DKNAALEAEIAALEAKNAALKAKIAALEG

4H1513-AA = biological target: T38, 4H1513-AA; assay: two-hybrid library CCmax; details: mean of both orientations
T38 chain: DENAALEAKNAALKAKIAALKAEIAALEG

4H1594-AA = biological target: T39, 4H1594-AA; assay: two-hybrid library CCmax; details: mean of both orientations
T39 chain: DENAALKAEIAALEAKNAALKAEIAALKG

4H3378-AA = biological target: T40, 4H3378-AA; assay: two-hybrid library CCmax
T40 chain: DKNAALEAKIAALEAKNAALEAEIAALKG

4H3631-AA = biological target: T41, 4H3631-AA; assay: two-hybrid library CCmax
T41 chain: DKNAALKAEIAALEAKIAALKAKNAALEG

4H1629-AA = biological target: T42, 4H1629-AA; assay: two-hybrid library CCmax; details: mean of both orientations
T42 chain: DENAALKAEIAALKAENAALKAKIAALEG

4H2198-AA = biological target: T43, 4H2198-AA; assay: two-hybrid library CCmax; details: mean of both orientations
T43 chain: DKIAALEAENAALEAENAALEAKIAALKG

4H384-AA = biological target: T44, 4H384-AA; assay: two-hybrid library CCmax; details: mean of both orientations
T44 chain: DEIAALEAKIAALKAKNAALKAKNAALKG

4H3588-AA = biological target: T45, 4H3588-AA; assay: two-hybrid library CCmax; details: mean of both orientations
T45 chain: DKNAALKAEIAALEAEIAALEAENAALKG

4H340-AA = biological target: T46, 4H340-AA; assay: two-hybrid library CCmax; details: mean of both orientations
T46 chain: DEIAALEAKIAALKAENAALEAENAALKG

4H1845-AA = biological target: T47, 4H1845-AA; assay: two-hybrid library CCmax; details: mean of both orientations
T47 chain: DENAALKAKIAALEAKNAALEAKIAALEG

4H2648-AA = biological target: T48, 4H2648-AA; assay: two-hybrid library CCmax; details: mean of both orientations
T48 chain: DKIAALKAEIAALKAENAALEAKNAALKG

4H3606-AA = biological target: T49, 4H3606-AA; assay: two-hybrid library CCmax; details: mean of both orientations
T49 chain: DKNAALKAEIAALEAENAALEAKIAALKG

4H1874-AA = biological target: T50, 4H1874-AA; assay: two-hybrid library CCmax; details: mean of both orientations
T50 chain: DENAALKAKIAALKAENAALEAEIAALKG

4H1351-AA = biological target: T51, 4H1351-AA; assay: two-hybrid library CCmax
T51 chain: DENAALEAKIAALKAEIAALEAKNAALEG

4H1401-AA = biological target: T52, 4H1401-AA; assay: two-hybrid library CCmax; details: mean of both orientations
T52 chain: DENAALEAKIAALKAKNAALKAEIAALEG

4H2611-AA = biological target: T53, 4H2611-AA; assay: two-hybrid library CCmax; details: mean of both orientations
T53 chain: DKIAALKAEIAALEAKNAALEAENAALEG

## DKIAQLKQKIAELKQKIAELEWENAQLEQ [4H2915-bA]
4H3057-bA
  interaction score: -0.856
4H319-bA
  interaction score: 1.12
4H3855-bN
  interaction score: 0.188
4H492-bA
  interaction score: -1.03
4H741-bA
  interaction score: -0.66
4H477-bA
  interaction score: -1.05
4H3277-bA
  interaction score: -1.17
4H2915-bA
  interaction score: 0.656
4H40-bA
  interaction score: 1.35
O11-bA
  interaction score: 0.236
4H348-bA
  interaction score: -1.42

## DKIQQLKQKIQELKQKNQELKWKNQELKQ [4H2944-bN]
4H48-bN
  interaction score: -0.0947
4H491-bN
  interaction score: -0.954
4H342-bN
  interaction score: -0.943
4H2944-bN
  interaction score: -0.735

## DEIAQLKQKIAELKQENAELEWKNAQLEQ [4H855-bA]
4H968-bA
  interaction score: -0.685
4H953-bA
  interaction score: -1.71
4H855-bA
  interaction score: -0.844
4H918-bA
  interaction score: -1.16
O11-bA
  interaction score: -3.09

## DKNQELKKEIEELEREIWELEKKNQELKR [4H3592-bH]
4H3601-bH
  interaction score: -0.0581
4H3592-bH
  interaction score: 0.863
4H3907-bH
  interaction score: 1.02
4H4038-bH
  interaction score: -0.403

## DENAALEAKIAALKAEIAALEAKNAALEG [4H1351-AA]
4H1388-AA
  interaction score: -0.254
4H3413-AA
  interaction score: -1.34
4H3718-AA
  interaction score: 0.664
4H3056-AA
  interaction score: -1.54
4H3865-AA
  interaction score: -1.73
4H2553-AA
  interaction score: -1.95
4H3162-AA
  interaction score: -1.42
4H2907-AA
  interaction score: -1.52
4H3697-AA
  interaction score: -1.37
4H982-AA
  interaction score: -0.516
4H32-AA
  interaction score: -0.591
4H2620-AA
  interaction score: -0.325
4H697-AA
  interaction score: -1.65
4H3133-AA
  interaction score: -0.555
4H1513-AA
  interaction score: -0.583
4H1594-AA
  interaction score: -1.24
4H3378-AA
  interaction score: -1.5
4H3631-AA
  interaction score: 2.1
4H1629-AA
  interaction score: -1.62
4H2198-AA
  interaction score: -1.4
4H384-AA
  interaction score: 0.76
4H3588-AA
  interaction score: 0.934
4H340-AA
  interaction score: -1
4H1845-AA
  interaction score: -1.17
4H2648-AA
  interaction score: -0.804
4H3606-AA
  interaction score: -1.64
4H1874-AA
  interaction score: -1.67
4H1351-AA
  interaction score: 0.323
4H1401-AA
  interaction score: -1.25
4H2611-AA
  interaction score: -0.748
